The target of assay [1] is T1, human FcRn (human, UniProt P55899 24-297; P61769 21-119, limits assumed, biotinylated through an engineered Avi-tag).
T1 construct: Immobilised on a streptavidin chip; not shown: engineered Avi-tag
The experiment in a line: BIAcore SPR, steady state, pH 6.0, biotinylated human FcRn on SA chip.

For assay [2], the target named is T1, human FcRn. The description is as above. The source holds these as a separate data set.
Description: Binding is detected by surface plasmon resonance (SPR) of laser light refracting from the surface. Human FcRn was specifically biotinylated through an engineered Avi-tag using the BirA reagent (Catalog #: BIRA500, Avidity, LLC, Aurora, Colo.) and immobilized onto a streptavidin (SA) sensor chip to enable uniform orientation of the FcRn protein on the sensor.
Assay [3] deals with T2, human 5T4 antigen on cells (MDAMB435/5T4 transfectants; MDA-MB-468) (human, UniProt Q13641 32-420).
T2 sequence (looked up): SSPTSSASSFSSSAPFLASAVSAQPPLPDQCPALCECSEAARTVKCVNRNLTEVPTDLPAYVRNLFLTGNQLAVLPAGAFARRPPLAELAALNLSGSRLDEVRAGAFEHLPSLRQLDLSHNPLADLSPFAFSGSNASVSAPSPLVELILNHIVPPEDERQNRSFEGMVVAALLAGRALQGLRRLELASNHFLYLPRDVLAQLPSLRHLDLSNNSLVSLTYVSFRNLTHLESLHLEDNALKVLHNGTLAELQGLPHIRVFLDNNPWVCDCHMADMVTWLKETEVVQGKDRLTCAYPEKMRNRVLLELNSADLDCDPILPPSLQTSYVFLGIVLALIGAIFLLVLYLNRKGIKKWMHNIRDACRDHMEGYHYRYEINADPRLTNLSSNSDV
Briefly: cell-based or functional assay.

In assay [4] the target is T3, human truncated recombinant 5T4 protein (5T4-tm-_myc_his) (human, UniProt Q13641 32-355).
T3 construct: extracellular domain; Coated on the ELISA plate; construct cited to Boghaert et al. 2008; also called 5T4 antigen; not shown: Myc and histidine tags
T3 sequence (looked up): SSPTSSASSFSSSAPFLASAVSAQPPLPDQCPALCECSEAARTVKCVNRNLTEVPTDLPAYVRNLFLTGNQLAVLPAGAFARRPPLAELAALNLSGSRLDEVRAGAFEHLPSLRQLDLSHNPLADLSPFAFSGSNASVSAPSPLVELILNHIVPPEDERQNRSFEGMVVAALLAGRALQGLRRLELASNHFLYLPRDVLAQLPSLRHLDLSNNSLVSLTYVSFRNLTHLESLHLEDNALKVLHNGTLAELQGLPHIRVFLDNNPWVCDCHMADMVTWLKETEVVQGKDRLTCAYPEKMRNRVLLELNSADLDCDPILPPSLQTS
The experiment in a line: competition ELISA on plate-coated 5T4-tm-_myc_his; competitor: biotinylated wild type anti-5T4 antibody at 1.3 nM, detected with streptavidin-HRP, OD450.

The text below walks through data of patent US20160008485A1 (Pfizer, published 2016).

Several values for one entry are separate records, joined by “and”; a condition that tells them apart may be missing. Identical values can stand only once. Like-named read-outs stand apart in the source and are kept apart here.

T1 sequence (P55899 24-297 limits assumed, chain 1 of 2): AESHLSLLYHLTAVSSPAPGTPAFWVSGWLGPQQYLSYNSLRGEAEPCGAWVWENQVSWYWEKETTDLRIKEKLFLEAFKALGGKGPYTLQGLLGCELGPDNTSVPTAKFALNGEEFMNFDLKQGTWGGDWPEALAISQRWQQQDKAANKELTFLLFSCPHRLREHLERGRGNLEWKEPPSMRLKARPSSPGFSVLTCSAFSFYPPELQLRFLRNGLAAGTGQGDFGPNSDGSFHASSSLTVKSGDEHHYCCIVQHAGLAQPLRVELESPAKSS
T1 sequence (P61769 21-119 limits assumed, chain 2 of 2): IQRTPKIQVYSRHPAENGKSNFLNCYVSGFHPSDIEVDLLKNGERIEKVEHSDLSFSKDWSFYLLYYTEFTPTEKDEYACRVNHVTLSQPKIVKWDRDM

B1: parental anti-5T4 antibody (wild type human IgG1) (antibody)
heavy: not shown
light: DIQMTQSPSSLSASVGDRVTITCKASQSVSNDVAWYQQKPGKAPKLLIYFATNRYTGVPSRFSGSGYGTDFTLTISSLQPEDFATYYCQQDYSSPWTFGQGTKVEIKRTVAAPSVFIFPPSDEQLKSGTASVVCLLNNFYPREAKVQWKVDNALQSGNSQESVTEQDSKDSTYSLSSTLTLSKADYEKHKVYACEVTHQGLSSPVTKSFNRGEC
notes: Humanized, human IgG1/kappa; also called Parental anti-5T4 Ab; wt IgG1
B1: the Kd was determined as 412 nM in assay [1] and 493 nM in assay [2].

B2: 5T4-E380C-mcMMAD (antibody, human IgG1, kappa)
heavy: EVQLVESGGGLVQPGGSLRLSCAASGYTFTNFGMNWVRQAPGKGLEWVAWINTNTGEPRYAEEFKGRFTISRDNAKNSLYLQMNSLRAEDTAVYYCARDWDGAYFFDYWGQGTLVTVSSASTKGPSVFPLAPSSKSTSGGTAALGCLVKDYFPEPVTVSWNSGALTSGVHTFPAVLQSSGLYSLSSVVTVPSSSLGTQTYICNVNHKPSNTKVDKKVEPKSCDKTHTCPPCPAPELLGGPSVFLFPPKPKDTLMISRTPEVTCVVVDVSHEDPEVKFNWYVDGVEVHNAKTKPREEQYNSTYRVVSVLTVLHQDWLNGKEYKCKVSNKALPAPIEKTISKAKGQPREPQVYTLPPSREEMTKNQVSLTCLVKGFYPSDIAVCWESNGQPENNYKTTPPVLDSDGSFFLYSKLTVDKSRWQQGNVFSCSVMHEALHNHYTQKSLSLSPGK
light: DIQMTQSPSSLSASVGDRVTITCKASQSVSNDVAWYQQKPGKAPKLLIYFATNRYTGVPSRFSGSGYGTDFTLTISSLQPEDFATYYCQQDYSSPWTFGQGTKVEIKRTVAAPSVFIFPPSDEQLKSGTASVVCLLNNFYPREAKVQWKVDNALQSGNSQESVTEQDSKDSTYSLSSTLTLSKADYEKHKVYACEVTHQGLSSPVTKSFNRGEC
modifications: mcMMAD on engineered Cys 380 (EU)
notes: Antibody-drug conjugate
In turn, B2 had a Kd in assay [2] of 409 nM. For the same molecule, in assay [3], the “IC50, growth inhibition (MTS), MDA-MB-468 cells (5T4 expression 2+)” value (“IC50, growth inhibition (MTS)” for short) was found to be 8.1 µg/mL and the “IC-50, growth inhibition (MTS), MDAMB435/5T4 cells (5T4 expression 3+)” value (shortened to “IC-50, growth inhibition (MTS)”) was 170 ng ADC/ml.

B3: 5T4-V422C (antibody, human IgG1, kappa)
heavy: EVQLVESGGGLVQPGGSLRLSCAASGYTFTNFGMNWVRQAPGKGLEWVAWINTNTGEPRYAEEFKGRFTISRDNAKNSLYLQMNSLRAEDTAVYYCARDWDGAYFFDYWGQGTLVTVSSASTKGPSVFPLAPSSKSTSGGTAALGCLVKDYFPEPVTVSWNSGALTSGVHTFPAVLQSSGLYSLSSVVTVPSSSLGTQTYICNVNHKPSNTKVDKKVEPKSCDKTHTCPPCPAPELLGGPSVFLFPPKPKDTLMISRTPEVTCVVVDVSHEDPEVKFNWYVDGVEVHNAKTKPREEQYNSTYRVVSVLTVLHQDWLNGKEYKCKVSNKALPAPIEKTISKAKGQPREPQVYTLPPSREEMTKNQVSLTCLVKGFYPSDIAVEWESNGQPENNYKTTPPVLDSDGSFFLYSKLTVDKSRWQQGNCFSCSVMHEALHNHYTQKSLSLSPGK
light: DIQMTQSPSSLSASVGDRVTITCKASQSVSNDVAWYQQKPGKAPKLLIYFATNRYTGVPSRFSGSGYGTDFTLTISSLQPEDFATYYCQQDYSSPWTFGQGTKVEIKRTVAAPSVFIFPPSDEQLKSGTASVVCLLNNFYPREAKVQWKVDNALQSGNSQESVTEQDSKDSTYSLSSTLTLSKADYEKHKVYACEVTHQGLSSPVTKSFNRGEC
Consider B3, for which binding in assay [1] was put at a Kd of 443 nM. In addition, the “IC50 (read off the curve)” value in assay [4] is around 7 nM.

B4: 5T4-V422C-mcMMAD (antibody, human IgG1, kappa)
heavy: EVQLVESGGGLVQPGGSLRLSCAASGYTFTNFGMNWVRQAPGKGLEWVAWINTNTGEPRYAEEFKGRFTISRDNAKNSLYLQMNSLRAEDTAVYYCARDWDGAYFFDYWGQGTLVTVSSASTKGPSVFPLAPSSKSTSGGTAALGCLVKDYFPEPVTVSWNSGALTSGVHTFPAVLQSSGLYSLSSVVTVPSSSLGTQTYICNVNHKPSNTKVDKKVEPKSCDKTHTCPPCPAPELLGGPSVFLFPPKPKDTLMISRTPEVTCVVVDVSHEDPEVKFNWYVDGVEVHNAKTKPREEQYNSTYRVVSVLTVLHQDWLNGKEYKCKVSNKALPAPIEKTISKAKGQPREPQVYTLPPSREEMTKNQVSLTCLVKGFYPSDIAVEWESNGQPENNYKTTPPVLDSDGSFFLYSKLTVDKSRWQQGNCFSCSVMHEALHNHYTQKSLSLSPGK
light: DIQMTQSPSSLSASVGDRVTITCKASQSVSNDVAWYQQKPGKAPKLLIYFATNRYTGVPSRFSGSGYGTDFTLTISSLQPEDFATYYCQQDYSSPWTFGQGTKVEIKRTVAAPSVFIFPPSDEQLKSGTASVVCLLNNFYPREAKVQWKVDNALQSGNSQESVTEQDSKDSTYSLSSTLTLSKADYEKHKVYACEVTHQGLSSPVTKSFNRGEC
modifications: mcMMAD on engineered Cys 422 (EU)
notes: Antibody-drug conjugate
B4 showed a Kd in assay [2] of 402 nM. In assay [3], the “IC50, growth inhibition (MTS)” value turned out to be 36 µg/mL and the “IC-50, growth inhibition (MTS)” value was 270 ng ADC/ml.

B5: 5T4-L398C-mcMMAD (antibody, human IgG1, kappa)
heavy: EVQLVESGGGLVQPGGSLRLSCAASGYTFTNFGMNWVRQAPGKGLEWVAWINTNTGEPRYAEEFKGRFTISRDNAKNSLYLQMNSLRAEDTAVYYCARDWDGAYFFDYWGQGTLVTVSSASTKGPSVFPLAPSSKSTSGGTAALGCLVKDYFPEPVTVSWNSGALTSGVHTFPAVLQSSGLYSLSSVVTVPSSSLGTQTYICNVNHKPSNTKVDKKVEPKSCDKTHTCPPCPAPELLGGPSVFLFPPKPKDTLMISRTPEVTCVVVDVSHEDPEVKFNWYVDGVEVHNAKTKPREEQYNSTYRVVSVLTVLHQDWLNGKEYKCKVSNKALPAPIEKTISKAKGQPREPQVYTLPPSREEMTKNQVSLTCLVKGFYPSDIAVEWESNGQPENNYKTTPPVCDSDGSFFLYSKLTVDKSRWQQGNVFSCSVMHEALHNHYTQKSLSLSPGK
light: DIQMTQSPSSLSASVGDRVTITCKASQSVSNDVAWYQQKPGKAPKLLIYFATNRYTGVPSRFSGSGYGTDFTLTISSLQPEDFATYYCQQDYSSPWTFGQGTKVEIKRTVAAPSVFIFPPSDEQLKSGTASVVCLLNNFYPREAKVQWKVDNALQSGNSQESVTEQDSKDSTYSLSSTLTLSKADYEKHKVYACEVTHQGLSSPVTKSFNRGEC
modifications: mcMMAD on engineered Cys 398 (EU)
notes: Antibody-drug conjugate
Regarding B5, the affinity in assay [2], expressed as Kd, was 704 nM. For the same molecule, in assay [3], the “IC50, growth inhibition (MTS)” value was found to be 13 µg/mL and the “IC-50, growth inhibition (MTS)” value worked out at 160 ng ADC/ml.

B6: 5T4-L443C-mcMMAD (antibody)
heavy: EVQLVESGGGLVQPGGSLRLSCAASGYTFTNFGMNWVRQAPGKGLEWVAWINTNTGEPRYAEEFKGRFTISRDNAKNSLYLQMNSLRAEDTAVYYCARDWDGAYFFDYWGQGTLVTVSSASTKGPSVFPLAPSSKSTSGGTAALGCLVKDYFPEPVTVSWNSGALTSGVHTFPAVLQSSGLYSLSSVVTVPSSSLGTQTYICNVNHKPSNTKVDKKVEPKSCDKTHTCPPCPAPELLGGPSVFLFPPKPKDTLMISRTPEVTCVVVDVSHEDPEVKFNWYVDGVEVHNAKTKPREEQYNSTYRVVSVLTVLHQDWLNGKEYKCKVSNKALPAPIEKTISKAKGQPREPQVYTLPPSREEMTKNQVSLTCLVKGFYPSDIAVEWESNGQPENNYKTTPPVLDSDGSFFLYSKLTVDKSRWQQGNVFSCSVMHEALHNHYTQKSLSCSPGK
light: DIQMTQSPSSLSASVGDRVTITCKASQSVSNDVAWYQQKPGKAPKLLIYFATNRYTGVPSRFSGSGYGTDFTLTISSLQPEDFATYYCQQDYSSPWTFGQGTKVEIKRTVAAPSVFIFPPSDEQLKSGTASVVCLLNNFYPREAKVQWKVDNALQSGNSQESVTEQDSKDSTYSLSSTLTLSKADYEKHKVYACEVTHQGLSSPVTKSFNRGEC
modifications: mcMMAD on engineered Cys 443 (EU)
notes: Antibody-drug conjugate; also called 5T4-L443C-mcMMAD (1)
With B6, the Kd in assay [2] is 697 nM and 518 nM. In addition, in assay [3], the “IC50, growth inhibition (MTS)” value came to 20 µg/mL and the “IC-50, growth inhibition (MTS)” value came out at 120 ng ADC/ml.
